Publication PMC4933246
Each block holds one substance with its values, some of them ahead of it.

Key:
[1] = molecular target: PHOX2A, MYC- or HA-tagged (human) (UniProt O14813)
[2] = molecular target: PHOX2B +7Ala fused to GAL4 BD or VP16 AD (human) (UniProt Q99453); assay: two-hybrid; mammalian two-hybrid (CheckMate, Promega) in neuroblastoma SK-N-BE(2)C cells; GAL4 BD fusion (pBIND) and VP16 AD fusion (pACT), 80 fmol each, with 160 fmol pG5LUC; Dual-Luciferase assay
[3] = molecular target: PHOX2B +13Ala fused to GAL4 BD or VP16 AD (human) (UniProt Q99453); assay: as above

luciferase activity of the DBH promoter reporter in HeLa cells co-transfected with PHOX2A and the PHOX2B +7 alanine mutant (fold over the empty vector) [1]: 23
Substance: PHOX2B +7 alanine mutant, MYC- or HA-tagged (from UniProt Q99453 1-314) (natural protein)

fold increase in luciferase activity [2]: 1.7 fold
Substance: PHOX2B +7Ala fused to GAL4 BD or VP16 AD (from UniProt Q99453 1-314) (natural protein)

fold increase in luciferase activity [3]: 2 fold
Substance: PHOX2B +13Ala fused to GAL4 BD or VP16 AD (from UniProt Q99453 1-314) (natural protein)
